This note sets out measurements from patent US6703362 (CYTOGEN, dated 2004).

The chains are these.
T1: D2H receptor domain (human D2H transporter, amino acid residues 387-685), His-tag fusion protein (human, UniProt Q07837 387-685)
T1 construct: purified under denaturing conditions; also called recombinant D2H; not shown: poly-histidine tag (pET vector) at the NH2-terminal end
T1 sequence: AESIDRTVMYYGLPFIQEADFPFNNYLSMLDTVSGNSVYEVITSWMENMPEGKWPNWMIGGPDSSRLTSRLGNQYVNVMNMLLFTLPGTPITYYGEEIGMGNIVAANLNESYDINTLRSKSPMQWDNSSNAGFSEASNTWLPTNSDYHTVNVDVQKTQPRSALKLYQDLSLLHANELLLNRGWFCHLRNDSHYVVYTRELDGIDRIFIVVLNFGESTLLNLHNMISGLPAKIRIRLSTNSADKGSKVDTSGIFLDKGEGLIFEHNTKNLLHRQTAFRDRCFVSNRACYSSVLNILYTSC

B1: SNi10 (peptide)
peptide: RVGQCTDSDVRRPWARSCAHQGCGAGTRNSHGCITRPLRQASAHAETVESCLAKPHTENSFTNVWKDDKTLDRYANYEGCLWNATGVVVCTGDETQCYGTWVPIGLAIPENEGGGSEGGGSEGGGSEGGGTKPPEYGDTPIPGYTYINPLDGTYPPGTEQNPANPNPSLEESQPLNTFMFQNNRFRNRQGALTVYTGTVTQGTDPVKTYYQYTPVSSKAMYDAYWNGKFRDCAFHSGFNEDPFVCEYQGQSSDLPQPPVNAGGGSGGGSGGGSEGGGSEGGGSEGGGSEGGGSGGGSGSGDFDYEKMANANKGAMTENADENALQSDAKGKLDSVATDYGAAIDGFIGDVSGLANGNGATGDFAGSNSQMAQVGDGDNSPLMNNFRQYLPSLPQSVECRPFVFSAGKPYEFSIDCDKINLFRGVFAFLLYVATFMYVFSTFANILRNKES
notes: Assayed as M13 phage clone displaying the insert
B2: SNiAX2 (peptide)
peptide: SDSDGDHYGLRGGVRCSLRDRGCGLALSTVHAGPPSFYPKLSSPAETVESCLAKPHTENSFTNVWKDDKTLDRYANYEGCLWNATGVVVCTGDETQCYGTWVPIGLAIPENEGGGSEGGGSEGGGSEGGGTKPPEYGDTPIPGYTYINPLDGTYPPGTEQNPANPNPSLEESQPLNTFMFQNNRFRNRQGALTVYTGTVTQGTDPVKTYYQYTPVSSKAMYDAYWNGKFRDCAFHSGFNEDPFVCEYQGQSSDLPQPPVNAGGGSGGGSGGGSEGGGSEGGGSEGGGSEGGGSGGGSGSGDFDYEKMANANKGAMTENADENALQSDAKGKLDSVATDYGAAIDGFIGDVSGLANGNGATGDFAGSNSQMAQVGDGDNSPLMNNFRQYLPSLPQSVECRPFVFSAGKPYEFSIDCDKINLFRGVFAFLLYVATFMYVFSTFANILRNKES
notes: as for B1
B3: SNiAX8 (peptide)
peptide: SPKLSSVGVMTKVTELPTEGPNAISIPISATLGPRNPLRAETVESCLAKPHTENSFTNVWKDDKTLDRYANYEGCLWNATGVVVCTGDETQCYGTWVPIGLAIPENEGGGSEGGGSEGGGSEGGGTKPPEYGDTPIPGYTYINPLDGTYPPGTEQNPANPNPSLEESQPLNTFMFQNNRFRNRQGALTVYTGTVTQGTDPVKTYYQYTPVSSKAMYDAYWNGKFRDCAFHSGFNEDPFVCEYQGQSSDLPQPPVNAGGGSGGGSGGGSEGGGSEGGGSEGGGSEGGGSGGGSGSGDFDYEKMANANKGAMTENADENALQSDAKGKLDSVATDYGAAIDGFIGDVSGLANGNGATGDFAGSNSQMAQVGDGDNSPLMNNFRQYLPSLPQSVECRPFVFSAGKPYEFSIDCDKINLFRGVFAFLLYVATFMYVFSTFANILRNKES
notes: as for B1
B4: SNi38 (peptide)
peptide: RGAADQRRGWSENLGLPRVGWDAIAHNSYTFTSRRPRPPAETVESCLAKPHTENSFTNVWKDDKTLDRYANYEGCLWNATGVVVCTGDETQCYGTWVPIGLAIPENEGGGSEGGGSEGGGSEGGGTKPPEYGDTPIPGYTYINPLDGTYPPGTEQNPANPNPSLEESQPLNTFMFQNNRFRNRQGALTVYTGTVTQGTDPVKTYYQYTPVSSKAMYDAYWNGKFRDCAFHSGFNEDPFVCEYQGQSSDLPQPPVNAGGGSGGGSGGGSEGGGSEGGGSEGGGSEGGGSGGGSGSGDFDYEKMANANKGAMTENADENALQSDAKGKLDSVATDYGAAIDGFIGDVSGLANGNGATGDFAGSNSQMAQVGDGDNSPLMNNFRQYLPSLPQSVECRPFVFSAGKPYEFSIDCDKINLFRGVFAFLLYVATFMYVFSTFANILRNKES
notes: as for B1
B5: SNiAX6 (peptide)
peptide: RTTTAKGCLLGSFGVLSGCSFTPTSPPPHLGYPPHSVNAETVESCLAKPHTENSFTNVWKDDKTLDRYANYEGCLWNATGVVVCTGDETQCYGTWVPIGLAIPENEGGGSEGGGSEGGGSEGGGTKPPEYGDTPIPGYTYINPLDGTYPPGTEQNPANPNPSLEESQPLNTFMFQNNRFRNRQGALTVYTGTVTQGTDPVKTYYQYTPVSSKAMYDAYWNGKFRDCAFHSGFNEDPFVCEYQGQSSDLPQPPVNAGGGSGGGSGGGSEGGGSEGGGSEGGGSEGGGSGGGSGSGDFDYEKMANANKGAMTENADENALQSDAKGKLDSVATDYGAAIDGFIGDVSGLANGNGATGDFAGSNSQMAQVGDGDNSPLMNNFRQYLPSLPQSVECRPFVFSAGKPYEFSIDCDKINLFRGVFAFLLYVATFMYVFSTFANILRNKES
notes: as for B1
B6: SNi34 (peptide)
peptide: SPCGGSWGRFMQGGLFGGRTDGCGAHRNRTSASLEPPSSDYAETVESCLAKPHTENSFTNVWKDDKTLDRYANYEGCLWNATGVVVCTGDETQCYGTWVPIGLAIPENEGGGSEGGGSEGGGSEGGGTKPPEYGDTPIPGYTYINPLDGTYPPGTEQNPANPNPSLEESQPLNTFMFQNNRFRNRQGALTVYTGTVTQGTDPVKTYYQYTPVSSKAMYDAYWNGKFRDCAFHSGFNEDPFVCEYQGQSSDLPQPPVNAGGGSGGGSGGGSEGGGSEGGGSEGGGSEGGGSGGGSGSGDFDYEKMANANKGAMTENADENALQSDAKGKLDSVATDYGAAIDGFIGDVSGLANGNGATGDFAGSNSQMAQVGDGDNSPLMNNFRQYLPSLPQSVECRPFVFSAGKPYEFSIDCDKINLFRGVFAFLLYVATFMYVFSTFANILRNKES
notes: as for B1
B7: SNi45 (peptide)
peptide: SGGEVSSWGRVNDLCARVSWTGCGTARSARTDNKGFLPKHSSLRAETVESCLAKPHTENSFTNVWKDDKTLDRYANYEGCLWNATGVVVCTGDETQCYGTWVPIGLAIPENEGGGSEGGGSEGGGSEGGGTKPPEYGDTPIPGYTYINPLDGTYPPGTEQNPANPNPSLEESQPLNTFMFQNNRFRNRQGALTVYTGTVTQGTDPVKTYYQYTPVSSKAMYDAYWNGKFRDCAFHSGFNEDPFVCEYQGQSSDLPQPPVNAGGGSGGGSGGGSEGGGSEGGGSEGGGSEGGGSGGGSGSGDFDYEKMANANKGAMTENADENALQSDAKGKLDSVATDYGAAIDGFIGDVSGLANGNGATGDFAGSNSQMAQVGDGDNSPLMNNFRQYLPSLPQSVECRPFVFSAGKPYEFSIDCDKINLFRGVFAFLLYVATFMYVFSTFANILRNKES
notes: as for B1
B8: SNi28 (peptide)
peptide: SHSGGMNRAYGDVFRELRDRWNATSHHTRPTPQLPRGPNAETVESCLAKPHTENSFTNVWKDDKTLDRYANYEGCLWNATGVVVCTGDETQCYGTWVPIGLAIPENEGGGSEGGGSEGGGSEGGGTKPPEYGDTPIPGYTYINPLDGTYPPGTEQNPANPNPSLEESQPLNTFMFQNNRFRNRQGALTVYTGTVTQGTDPVKTYYQYTPVSSKAMYDAYWNGKFRDCAFHSGFNEDPFVCEYQGQSSDLPQPPVNAGGGSGGGSGGGSEGGGSEGGGSEGGGSEGGGSGGGSGSGDFDYEKMANANKGAMTENADENALQSDAKGKLDSVATDYGAAIDGFIGDVSGLANGNGATGDFAGSNSQMAQVGDGDNSPLMNNFRQYLPSLPQSVECRPFVFSAGKPYEFSIDCDKINLFRGVFAFLLYVATFMYVFSTFANILRNKES
notes: as for B1
B9: DAX27 (peptide)
peptide: SHPWYRHWNHGDFSGSGQSRHTPPESPHPGRPNATIAETVESCLAKPHTENSFTNVWKDDKTLDRYANYEGCLWNATGVVVCTGDETQCYGTWVPIGLAIPENEGGGSEGGGSEGGGSEGGGTKPPEYGDTPIPGYTYINPLDGTYPPGTEQNPANPNPSLEESQPLNTFMFQNNRFRNRQGALTVYTGTVTQGTDPVKTYYQYTPVSSKAMYDAYWNGKFRDCAFHSGFNEDPFVCEYQGQSSDLPQPPVNAGGGSGGGSGGGSEGGGSEGGGSEGGGSEGGGSGGGSGSGDFDYEKMANANKGAMTENADENALQSDAKGKLDSVATDYGAAIDGFIGDVSGLANGNGATGDFAGSNSQMAQVGDGDNSPLMNNFRQYLPSLPQSVECRPFVFSAGKPYEFSIDCDKINLFRGVFAFLLYVATFMYVFSTFANILRNKES
notes: as for B1
B10: DAX24 (peptide)
peptide: RMEDIKNSGWRDSCRWGDLRPGCGSRQWYPSNMRSSRDYPAGGHAETVESCLAKPHTENSFTNVWKDDKTLDRYANYEGCLWNATGVVVCTGDETQCYGTWVPIGLAIPENEGGGSEGGGSEGGGSEGGGTKPPEYGDTPIPGYTYINPLDGTYPPGTEQNPANPNPSLEESQPLNTFMFQNNRFRNRQGALTVYTGTVTQGTDPVKTYYQYTPVSSKAMYDAYWNGKFRDCAFHSGFNEDPFVCEYQGQSSDLPQPPVNAGGGSGGGSGGGSEGGGSEGGGSEGGGSEGGGSGGGSGSGDFDYEKMANANKGAMTENADENALQSDAKGKLDSVATDYGAAIDGFIGDVSGLANGNGATGDFAGSNSQMAQVGDGDNSPLMNNFRQYLPSLPQSVECRPFVFSAGKPYEFSIDCDKINLFRGVFAFLLYVATFMYVFSTFANILRNKES
notes: as for B1

T2 sequence (P14410 272-667, one chain of several): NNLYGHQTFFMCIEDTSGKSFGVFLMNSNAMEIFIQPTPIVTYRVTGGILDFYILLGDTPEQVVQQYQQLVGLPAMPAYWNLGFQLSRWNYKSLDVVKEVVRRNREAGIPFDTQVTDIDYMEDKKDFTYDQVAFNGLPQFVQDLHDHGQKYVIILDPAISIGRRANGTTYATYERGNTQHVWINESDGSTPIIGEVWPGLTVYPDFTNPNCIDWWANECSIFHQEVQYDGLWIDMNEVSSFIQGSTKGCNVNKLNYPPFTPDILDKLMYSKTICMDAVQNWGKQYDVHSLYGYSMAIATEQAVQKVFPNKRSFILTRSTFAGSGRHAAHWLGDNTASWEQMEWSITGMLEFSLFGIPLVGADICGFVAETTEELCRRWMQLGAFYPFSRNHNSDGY

One test addresses T2, hSI receptor domain (human sucrase-isomaltase complex, amino acid residues 272-667), His-tag fusion protein (human, UniProt P14410 272-667).
T2 construct: also called hS1; recombinant hSI; not shown: poly-histidine tag (pET vector) at the NH2-terminal end
Put plainly: phage ELISA, OD on hSI over OD on BSA. On the procedure:
(§1) 6.6. Receptor ELISA Procedure 96 well plates were coated overnight with GIT receptor, BSA and, optionally, IDE (insulin degrading enzyme, an irrelevant His-fusion protein)or hTF. The plates were blocked for one hour with 0.5% BSA-PBS. After clarification, the amplified phage were diluted 1:100 in […] plus 0.05% Tween 20 in PBS and added to the plates. Following incubation of the plates on a rotator for 1 to 2 hours, the plates were washed 5 times with 1% BSA plus 0.05% Tween 20 in PBS. […] After the plates were washed 5 times, as described above, TMB substrate was added to the wells. The plates were read at 650 nm absorbance.
Background: ELISA stands for enzyme-linked immunosorbent assay.
Molecule B1 gave a hSI/BSA of 11 ratio.

In turn, B2 returned a hSI/BSA of 6 ratio. Consider B3, for which the hSI/BSA was found to be 5 ratio. On the same count and under the same terms, then B4, with 6 ratio. Turning to B5, the hSI/BSA worked out at 7 ratio. In the case of B6, the hSI/BSA was 7 ratio.

In turn, B7 displayed a hSI/BSA of 9 ratio. The molecule B8 gave a hSI/BSA of 8 ratio.

The next test deals with T2, hSI receptor domain (human …). Put plainly: phage ELISA, plate coated with hSI domain. How it is done:
as §1
B1 returned an OD of 0.57 OD. As to B2, the OD turned out to be 0.383 OD.

Molecule B3 showed an OD of 0.342 OD. Still for that read-out and setting: then B4, with 0.466 OD; and B5, with 0.369 OD; and B6, with 0.761 OD. B7 yielded an OD of 0.518 OD. Turning to B8, the OD stood at 0.942 OD.

For a further test, the target named is T1, D2H receptor domain (human D2H …). The test is described as follows: phage ELISA, plate coated with D2H domain. On the procedure: as §1
In turn, B9 returned an OD of 1.58 OD.

For B10, the OD was found to be 0.591 OD.
